Patent publication US7572594B2, “Screening assays for agonists or antagonists or receptor activator of NF-κB” (Immunex Corporation, priority 2000, dated 2009)
Entries after “also recorded” stand apart in the source; their conditions may differ.

Experiments:
Assay type in all cases: cell-based, mouse
c-src tyrosine kinase = test: c-src immune complex kinase assay in RANK −/− osteoclast precursors infected with RANK retrovirus
Description: Experiments were conducted in which DNA encoding wild-type or human RANK/TRAF6 binding mutant (RANK Δ340-421) was introduced into hematopoietic cells isolated from RANK −/− mice. Full-length and mutant human RANK DNAs were subcloned into the pBMNZ retroviral vector as previously described (Kinsella and Nolan, 1996, Human Gene Therapy 7:1405-1413). Infectious RANK-containing retrovirus was produced in 293-E Phoenix packaging cells as described (Kinsella and Nolan, 1996). Supernatants from these cells were used as a source of infectious virus particles.
The generation of the RANK −/− mice used in these assays has been described previously (Dougall et al., 1999). Spleen cells were isolated from 3-6 week old RANK−/− mice and enriched for osteoclast precursors by depleting the initial cell population of various types of cells other than osteoclast precursors. For this “depletion” step, the cells were incubated with biotinylated antibodies against CD3 (specific for T cells), Ter-119 (specific for erythrocytes), and GR-1 (specific for granulocytes). After the antibodies had bound to their respective target cells, streptavidin-conjugated magnetic beads were added to the culture, and the mixture of cells was passed over magnetic columns (MACS depletion columns; MILLTENNYI). […]
To induce c-src and F-actin rings, recombinant mRANK-L/leucine zipper protein was added to the cultures at a concentration of 1 μg/ml for various times after which the cells were lysed in a buffer containing 50 mM HEPES (pH 7.2), 10% glycerol, 250 mM NaCl and 1% Triton X-100. […] C-src activity in the immune complex was monitored using a commercially available assay kit (Upstate Biotechnology, Lake Placid, N.Y.). […] The phosphorylated substrate peptide was then separated from the residual labeled ATP using phosphocellulose paper and labeled peptide was quantified using a scintillation counter. […]

[1] = system: primary hematopoietic cells from the RANK −/− mice; test: F-actin ring formation, phalloidin staining; details: 5 days in 40 ng/ml CSF-1 and 200 ng/ml mRANK-L
Excerpt: To detect F-actin rings, cells are fixed, such as by exposure to 3% paraformaldehyde, and visualized by staining cells with a fluorescent probe that binds specifically with actin. A suitable fluorescent tag is phalloidin, which can be obtained from Molecular Probes, Eugene, Oreg. The fluorescent signal is detected, for example, using a standard fluorescent microscope, and the number of cells having F-actin rings is visually quantified. An F-actin ring is identified as a continuous ring of F-actin at the periphery of a cell, and these distinct structures are visible through a microscope.
A procedure to detect F-actin rings was carried out as follows. Primary hematopoietic cells from the RANK −/− mice were infected with retroviral constructs encoding either the full-length human RANK cDNA or the RANK/TRAF6 binding mutant (RANK Δ340-421). Cells were cultured on LabTek Chamber slides with #1 borosilicate coverglasses (Nalge/Nunc). After incubation for 5 days in MEM containing 10% fetal bovine serum containing 40 ng/ml CSF-1 and 200 ng/ml mRANK-L. The media was aspirated, washed twice in PBS and then fixed in a solution of 3% paraformaldehyde for 10 minutes, followed by quenching in 50 mM NH4Cl. […] The fluorescent signal was detected using a standard fluorescent microscope, and F-actin rings were identified as continuous rings of F-actin at the periphery of individual cells.

[2] = system: spleen cells from RANK −/− mice; test: CaPO4 resorption (pit formation) assay; details: 5 days in 40 ng/ml CSF-1 and 200 ng/ml mRANK-L on CaPO4 film; listed as full-length RANK
Excerpt: The resorption of CaPO4, upon which this assay is based, is considered to be a measure of osteoclast activity. Spleen cells were isolated from 3-6 week old RANK −/− mice and treated as described in Example 9 to remove cells expressing the CD3, Ter-119, and GR-1 antigens. Cells not expressing any of these antigens were harvested and infected as described in Example 9 with retroviral vector particles containing full-length or TRAF6 binding site deletion mutants of RANK.
Following infection, the spleen cells were harvested and plated in MEM containing 10% fetal bovine serum containing 40 ng/ml CSF-1 and 200 ng/ml mRANK-L onto 16 well quartz slides coated with a thin film of CaPO4 (Osteologic, BD Biosystems). After 5 days in culture, the slides were washed, the cells removed by washing with bleach, and the slides washed again with buffer. […] The number of pits in the CaPO4 film is a measure of the extent to which the RANK-L induced the cells grown on that slide to differentiate into osteoclasts.
If desired, the CaPO4 film can be stained using a 0.5% solution of alizarin red for 4 to 5 minutes followed by washing in water. After staining, the resorptive lacunae are visualized by phase contrast microscopy as a clear area on a red background.

B1: wild type RANK: full-length human RANK, receptor activator of NF-κB (SEQ ID NO:2), expressed from vector or retrovirus (protein, listed as Homo sapiens)
chain: MAPRARRRRPLFALLLLCALLARLQVALQIAPPCTSEKHYEHLGRCCNKCEPGKYMSSKCTTTSDSVCLPCGPDEYLDSWNEEDKCLLHKVCDTGKALVAVVAGNSTTPRRCACTAGYHWSQDCECCRRNTECAPGLGAQHPLQLNKDTVCKPCLAGYFSDAFSSTDKCRPWTNCTFLGKRVEHHGTEKSDAVCSSSLPARKPPNEPHVYLPGLIILLLFASVALVAAIIFGVCYRKKGKALTANLWHWINEACGRLSGDKESSGDSCVSTHTANFGQQGACEGVLLLTLEEKTFPEDMCYPDQGGVCQGTCVGGGPYAQGEDARMLSLVSKTEIEEDSFRQMPTEDEYMDRPSQPTDQLLFLTEPGSKSTPPFSEPLEVGENDSLSQCFTGTQSTVGSESCNCTEPLCRTDWTPMSSENYLQKEVDSGHCPHWAASPSPNWADVCTGCRNPPGEDCEPLVGSPKRGPLPQCAYGMGLPPEEEASRTEARDQPEDGADGRLPSSARAGAGSGSSPGGQSPASGNVTGNSNSTFISSGQVMNFKGDIIVVYVSQTSQEGAAAAAEPMGRPVQEETLARRDSFAGNGPRFPDPCGGPEGLREPEKASRPVQEQGGAKA
**Q.** With B1 as the molecule, how does the “32P incorporated into a c-src-specific substrate versus extracts from cells defective in RANK” value (c-src tyrosine kinase; cell extracts following differentiation) read?
**A.** about 15 fold

**Q.** What about the c-src activity (c-src tyrosine kinase; cells differentiated after retroviral infection, background = uninfected RANK −/− cells) of the same molecule?
**A.** high levels of c-src activity

**Q.** And the “cells with F-actin rings” value [1]?
**A.** more than 50%

**Q.** What about the CaPO4 resorption [2] of the same molecule?
**A.** resorbed the CaPO4 matrix; also recorded: high levels of CaPO4 resorption
